From the supplement of paper PMC9170038

Test system: MS2 coat protein
Assay: apparent KD of MS2 coat protein, switch ON state; designed switch direction (-1 OFF switch, 1 ON switch): -1; higher = weaker reporter binding
Details: FMN input: 0 or 200 uM; Eterna round: R93 (includes R88 designs)
Method in brief: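 Values are apparent KD, taken as the median for each design of fits to normalised binding curves from individual clusters. The designed RNA switches were transcribed on-chip from Illumina sequencing clusters and exposed to SNAP-549-labelled MS2 coat protein at twofold increasing amounts from 0.7 or 1.5 nM to 3 µM. Titration used 100 mM Tris-HCl pH 7.5, 80 mM KCl and 4 mM MgCl2, without or with constant ligand.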

Compared with “AUAAAACAUGAGGAUCACCCAUGUGAGGAUAUCCAAAAAGAAAGAAAAAAAAAAAAAAGGAGAAGGCACAAUAA [Amethyst 46]”, “AAAGUACGAGGAUAUACAUAGAUACAGAUACAUGUAGACGUACAUGAGGAUCACCCAUGUAGAAGGCGUACAUA [Mat - Same state - Mayanna Mod - D115]” is 2.3-fold higher in “apparent KD of MS2 coat protein” value: 67.6 nM for the first, 154 nM for the second.

“AAAAAUCGAGGAUAUACAUGAGGAUCACCCAUGUGGGACCAAGAAAACACAAAAGAAAGUAGAAGGCGAUAAAA [Ex 3 May 23]” and “AGCAGUACAGGAUAUACAUGAGGAUCACCCAUGUGAAAAGAAAGUGGCGUACCACAAAGUAGAAGGGUACUGCA [Mat - Exclusion 3 - JL mod - D33]” are within 1.5-fold of each other in “apparent KD of MS2 coat protein” value: 21.9 nM for the first, 27.9 nM for the second.

First: ACAAGAUCAGGAUAUACAUGAGGAUCACCCAUGUAUAAAAAAAAAGGGCCUUCUACAUGUAGAAGGGAUCUUGU [EX3 290: Random 26]
Second: GAAAGGGCAGGAUAUGCAGAGAGAGAGAGAGAGAGAAAAAAACAUGAGGAUCACCCAUGUAGAAGGGCCGAAAG [salish99-ex2-06]
The “apparent KD of MS2 coat protein” value of the first is 2.7-fold lower: 14.3 nM for the first, 38.5 nM for the second.

“AUAAGUCGAGGAUAUACGAAAAGCUAGCGAAAGCUAGCGGGACAUGAGGAUCACCCAUGUAGAAGGCGACAAUA [Tetraloop hairpin BlockHead... 61% 5]” and “CUCUUGUGAGGAUAUUGAAGAAAAGAAAAGAAAGAAAAGAACAAGAAGGCACAUGAGGAUCACCCAUGUAAGAA [EteRNA is fun!]” are within 1.5-fold of each other in “apparent KD of MS2 coat protein” value: 28.4 nM for the first, 24.8 nM for the second.

Compared with “AGCUAGUGAGGAUAUACGAACAUGUCAACAGACUGUAAGGGACAUGAGGAUCACCCAUGUAGAAGGCACUAGCA [Diamond 56]”, “AGGAAACAUGAGGAUCACCCAUGUGAGGAUAUGAACGAAAUAAAAUAAAAAUAAAAGUUCAGAAGGCAUAAAAA [Mat - Exclusion 1 - Eli mod - D7]” is 2.2-fold lower in “apparent KD of MS2 coat protein” value: 59.4 nM for the first, 26.8 nM for the second.

First: CACGUACAUGAGGAUCACCCAUGUUAGGAUAUGCCGGGUAAGAGAAAACAAAAAAUCAGCAGAAGGGACGAAAC [Bilbo Confounded 17 - Jieux - Exclusion 1]
Second: AAGACUAGAGGAUAUACAUGAGGAUCACCCAUGUAACUGUCAGAAAACUGACGGAGAAGUAGAAGGCUAGUCAA [Mat - Exclusion 3 - JL mod - D86]
The “apparent KD of MS2 coat protein” value of the first is 2-fold higher: 34.1 nM for the first, 16.9 nM for the second.

Compared with “AAAAAGUGAGGAUAUGAAAAUAAAAAAAAAAAAAAAAUAAAUCAGAAGGCACAUGAGGAUCACCCAUGUAAAAA [JR_Exc004_Sub1201]”, “GGUUGGCGAGGAUAUACAUGAGGAUCACCCAUGUGAGAGAAAAAAGUGAGAAAGAUAAGUAGAAGGCGCUGACG [salish99-ex3-39]” is 2.7-fold higher in “apparent KD of MS2 coat protein” value: 29.8 nM for the first, 80.3 nM for the second.

First: AACAGUACAGGAUAUACAUGAGGAUCACCCAUGUGAUAUAAAUAAAACAAAAAUAAAAGUAGAAGGGUACUGGA [Ruby 44]
Second: AAAGGGUCAGGAUAUUGAUUAAUAAUAAAAUAAAUAAAGAUCAAGAAGGGACAUGAGGAUCACCCAUGUAUAAA [May 78]
The “apparent KD of MS2 coat protein” value of the first is 1.6-fold lower: 25.7 nM for the first, 40.5 nM for the second.

Going from “AAAAAUGCAGGAUAUACGAACAUGUCGAAAGACGUGAAGGGACAUGAGGAUCACCCAUGUAGAAGGGUAAAGAA [Mat - Exclusion 2 - JL mod - D74]” to “AUAAAACAUGAGGAUCACCCAUGUGAGGAUAUGCGAAACAAACAAACAAACAAACAAAGCAGAAGGCACAAUAA [Amethyst 9]”, the “apparent KD of MS2 coat protein” value falls from 264 nM to 22.6 nM (12-fold).

Compared with “AGAAACCUAGGAUAUACAUGAGGAUCACCCAUGUAAAGAAAGAGGAGAGCCACAAGAAGUAGAAGGAGGAAGAA [JR_Exc003_Sub006]”, “GGGUACGCAGGAUAUACAUGAAAAAAAAAAAAAAAAAAAAAACAUGAGGAUCACCCAUGUAGAAGGGCGUAUCC [hsl_exclusion2]” is 4.1-fold higher in “apparent KD of MS2 coat protein” value: 22.7 nM for the first, 92.5 nM for the second.

Compared with “AAAAUGUCAGGAUAUGCGAAGGCGUCUGAUAGACGAGGCUAGCAGAAGGGACAUGAGGAUCACCCAUGUAAAAA [Power strip]”, “AAUUCACAUGAGGAUCACCCAUGUAAGGAUAUCGAAAUAAAACUAAACAAAAAACAAACGAGAAGGUACAAAAA [Exclusion 1 design 6]” is 3.3-fold lower in “apparent KD of MS2 coat protein” value: 82.2 nM for the first, 25 nM for the second.

“AAAAAGUGAGGAUAUACAUGAGGAUCACCCAUGUGAAAUCGGAAAAAAAAGGAAAAAAGUAGAAGGCACAAAAA [Mat - Mod of Eli]” and “AAAAAGAAAGGAUAUACGAACAUGUCGAAAGACGUGAAGGGACAUGAGGAUCACCCAUGUAGAAGGUUUAAAAA [Mat - Exclusion 2 - JL mod - D82]” are within 1.5-fold of each other in “apparent KD of MS2 coat protein” value: 17.1 nM for the first, 25.2 nM for the second.

First: AAAGUGUCAGGAUAUGCUGCUCGUCACGAAAGUGAUGAGUAGCAGAAGGGACAUGAGGAUCACCCAUGUAAAGA [Exclusion 4.1d (Exclusion4-cac2 - mutated U at 5 and G at 4)]
Second: AUAGUACAUGAGGAUCACCCAUGUCAGGAUAUCGGAUAUGACAUGAAAAAAAUGUUAACGAGAAGGGACUAUAA [EX1 Malc#18]
The “apparent KD of MS2 coat protein” value of the first is 2.5-fold higher: 110 nM for the first, 44.3 nM for the second.

Going from “AAAAAGUCAGGAUAUACGUACAUGUCGAAAGACGUGAAGGGACAUGAGGAUCACCCAUGUAGAAGGGACAAGAA [Mat - Exclusion 2 - JL mod - D78]” to “AACAGUACAGGAUAUACAUGAGGAUCACCCAUGUGAAGAUUAAGAAGAAACCCACAAAGUAGAAGGGUACUGGA [Ruby 92]”, the “apparent KD of MS2 coat protein” value falls from 99.6 nM to 29 nM (3.4-fold).

Compared with “AAGAAGUCAGGAUAUCGAAGACUGUCGAAAAGACAGUCGAACGAGAAGGGACAUGAGGAUCACCCAUGUGGAAG [Mat - Exaclusion 4 - Eli mod - D72]”, “AAAAAACAUGAGGAUCACCCAUGUAAGGAUAUGCUGAAAAACACGGAAAAACGUGACAGCAGAAGGUACAAAAA [66%, Wbt, 32]” is 4.6-fold lower in “apparent KD of MS2 coat protein” value: 99.2 nM for the first, 21.6 nM for the second.

Compared with “AAAAAGUCAGGAUAUACGAAAGUGCGAAAGCACAAAAGGAAACAUGAGGAUCACCCAUGUAGAAGGGACAAGAA [Married to this design, 61% 1]”, “AAAAAACAUGAGGAUCACCCAUGUGAGGAUAUGCAAAACCCAUAUAAAAAGGGAAAAAGCAGAAGGUACAAAAA [Starry Exclusion 1.2 (wbt round 1 mod)]” is 2.2-fold lower in “apparent KD of MS2 coat protein” value: 45.4 nM for the first, 20.7 nM for the second.

Compared with “AAAAAGCUAGGAUAUACGAAAAAAAAGGGUAAAAUAAAUAAACAUGAGGAUCACCCAUGUAGAAGGAGCAAAAA [Mat - Exclusion 2 - Tesla mod - D37]”, “AGAAAGUGAGGAUAUACAUGAGGAUCACCCAUGUAGAACGAGAGUUAUAAAAAUGGAAGUAGAAGGCACAAAAG [Meechl MS2 Ex3]” is 1.5-fold lower in “apparent KD of MS2 coat protein” value: 42.6 nM for the first, 28.3 nM for the second.

“AGGAAACAUGAGGAUCACCCAUGUCAGGAUAUAUGAAAGAAAAGAAAAGAAAGAAGAAGUAGAAGGGACAAGAA [Ka]” and “AAAUAGCAAGGAUAUACAUGAGGAUCACCCAUGUAAAAAUGGAAAGUAAUAAAAUAAAGUAGAAGGUGCAAAUA [Ex 3 Tesla 3]” are within 1.5-fold of each other in “apparent KD of MS2 coat protein” value: 29.8 nM for the first, 26.9 nM for the second.

“AAAAAAUGAGGAUAUACAUGAAAAAAAAAAAAAAAAAAAAAACAUGAGGAUCACCCAUGUAGAAGGCGUAAAAA [Flexi GU!]” and “AAAGUGUGAGGAUAUGCGAAAGGACACGAAAGUGACAAAGAGCAGAAGGUACAUGAGGAUCACCCAUGUAAAAA [milkweed 19]” are within 1.5-fold of each other in “apparent KD of MS2 coat protein” value: 39.8 nM for the first, 27.2 nM for the second.

First: AACAGUAGAGGAUAUACAUGAGGAUCACCCAUGUGAGAAACCACUGGCGUACCAGAAAGUAGAAGGCUACUGGA [Moding Maslow Revisited (73) 30]
Second: AAAAAAGGAGGAUAUACGAACAUGUCAAAAGACGUGAAGGGACAUGAGGAUCACCCAUGUAGAAGGUUUAAAAA [JL Wide Open 32]
The “apparent KD of MS2 coat protein” value of the first is 2.1-fold higher: 103 nM for the first, 48 nM for the second.

“AGGGAGUGAGGAUAUCCGAAAAAAAAACAACGAAAAAAAGAGGAGAAGGCACAUGAGGAUCACCCAUGUAAGAA [milkweed 15]” and “AACAAGACAGGAUAUACAUGAGGAUCACCCAUGUGAGAAUUAAGUGGCGUAACACAAAGUAGAAGGGUCAUGGA [Ruby 4]” are within 1.5-fold of each other in “apparent KD of MS2 coat protein” value: 40.7 nM for the first, 38 nM for the second.

Compared with “AGCACGUCAGGAUAUACGAAAAAAAAGGGUAAAAAAAAGGGACAUGAGGAUCACCCAUGUAGAAGGGACAAGCA [Diamond 93]”, “AAAAAGCGAGGAUAUACAUGAGGAUCACCCAUGUCAAACGGUAAGACCGCAGGAAAAAGUAGAAGGCGCAAAAA [Exclusion3-02]” is 2.2-fold lower in “apparent KD of MS2 coat protein” value: 147 nM for the first, 65.9 nM for the second.
